Assay results taken from a protein production outcome set (Wang et al. 2014).

Assay: label from the status in PepcDB records

Row | Sequence | protein production
1 | YLELNEIESIIKDINTKAQKMHSGIHKRFYLFVALMTEFQALNGMRIGEMLAIQNEDIDFDNKSLNINGTIHWFHDESGGFGVKDTTKTESSYRTIGLSSRSCEILKKAILENKKDSKWNDGYLNRNFVFTNHKGNPMQTERFNKILREAAKDVGIDKEVSSHILRHSHISLLSQQGVSLKAIMDRVGHSDHRTTLSIYSHVTEQMDKDMMNKLEQVKLG | not failed
2 | YLKVFDLDWHPDGMLDAKPALASADWKGLAELAQLSHKALEDAGLPQFEGSNAWAISGSRTQSGKPILAGDPHIRFSVPSVWYEAQLSAPGFELYGHFPALNPFAFLGHNMDFGWSLTMFQNDDVDLIAEKTNPDNPNQVWYHGQWVDMKRTEQQIAVKGQAPVTLTLIESPHGPIVNNVMGKNAGQTPIAMWWSFLVSANPVLDGFYDANRADTLDKMRSAAEKIQSPGLNIVWANAKGDIGWWAAAQLPIRPEGVNPGFILDGSTAQADKLGFYPFSANPHEENPARGYIVSANFQPLSPTGMQIPGYYNPAERGQELNRQLSDSSIKWDLAASKALQLSTQTDYAPSILRPLIPVLRSAISDPDELALVERLASWKGDYPVDSVGATLFN | failed
3 | YMVPGLWGAPLKAVSAFAPPMKTQDFNLYTNEVHAKFDDYDLGMEYARQHNKPVMLDFTGYGCVNCRKMELAVWTDPKVSSIINNDYVLITLYVDNKTPLTEPVKIMENGTERTLRTVGDKWSYLQRVKFGANAQPFYVLIDNEGNPLNKSYAYDEDISKYINFLQTGLENYRKEK | failed
4 | YQEPKGELVISAPTMFGRQHVLPVISEFIARYPLIRVRLLLSDRNADLVSDHVDLAVRIGDLADSSMVATRLGTMRIVACAHPALLAKYGEPQRPRDLAALPIIRIESPMPYRGWRFRAAEREDQLINLPPVLSVTTPESA | failed
5 | YRATKLWNEVTTSFRAGMPLRKHRQHFKKYGNCFTAGEAVDWLYDLLRNNSNFGPEVTRQQTIQLLRKFLKNHVIEDIKGRWGSENVDDNNQLFRFPA | not failed
6 | YRSKGEYHELLANHVAELSKLQNVLYADNRYAILLIFQAMDAAGKDSAIKHVMSGVNPQGCQVYSFKHPSATELEHDFLWRTNCVLPERGRIGIFNRSYYEEVLVVRVHPEILEMQNIPHNLAHNGKVWDHRYRSIVSHEQHLHCNGTRIVKFYLHLSKEEQRKRFLERIDDPNKNWKFSTADLEERKFWDQYMEAYESCLQETSTKDSPWFAVPADDKKNARLIVSRIVLDTLESLNLKYP | failed
7 | YSVTVKWGKEKFEGVELNTDEPPMVFKAQLFALTGVQPARQKVMVKGGTLKDDDWGNIKMKNGMTVLMMGSADALPEEPSAKT | not failed
8 | YTVEPVQDGERSVTLRRAGGTPLVAAMYHLPAAGSPDFVGLDLAATILADTPSGRLYHALVPTKLASGVFGFTMDQLDPGLAMFGAQLQPGMDQDKALQTLTATLESLSSKPFSQEELERARSKWLTAWQQTYADPEKVGVALSEAIASGDWRLFFLQRDRVRDAKLDDVQRAAVAYLVRSNRTEGRYIPTEKPQRAPLAQR | failed
9 | YTVRLETEHAKEILSSDSPWASLEMFSFYGNYLKLVRTEYEGLRLSSGDTVFFLGSGPLPLTLIVFFRLYGVKSTGIEKDSFRANLSKKVLEKLGLSSVIKIVNGNHFSLSRKDLSLSPDTGVKALMIAAQAEPKKEIFEHLLEVMPIGGRISC | failed
